Results from US20100197009A1.

Legend:
[1] = target: biotinylated HLA-A2-AviTag/MelanApeptide/β2 microglobulin complex; assay: flow cytometry of streptavidin M280 beads saturated with the biotinylated complex, stained with anti-HLA-ABC, legend of FIG. 4
[2] = target: biotinylated HLA-A2-AviTag/MelanApeptide/β2 microglobulin complex; assay: flow cytometry of streptavidin M280 beads coated with 0.015 µg of the biotinylated complex, stained with FITC anti-HLA ABC
[3] = target: biotinylated HLA-A2-AviTag/MelanApeptide/β2 microglobulin complex; assay: flow cytometry of streptavidin M280 beads coated with the biotinylated complex (saturating, 2 µg), stained with FITC anti-HLA ABC

Q: How did the MFI [1] turn out when “streptavidin on M280 beads (Dynal) (from UniProt P22629 37-163)” was run?
A: The MFI was 305 MFI.

Q: And the MFI [2]?
A: Its MFI is 24.5 MFI.

Q: What about the MFI [3] of the same substance?
A: The MFI was 300 MFI.
